Among the data in patent US20260250410A1 (SICHUAN HUIYU PHARMACEUTICAL, published 2026) are EC50 values, retold here.

Changes are numbered by the printed parent chain.

Sequences and labels used below:
B1: 8E5 (antibody, V domains shown)
VH: EVQLKESGPELKKPGETVKISCKASGYTLTDFSMHWLKQAPGKGLKWMGWINTETGAPTYADDFKGRFALSLDTSANTAYLQINNLKNEDTATYFCSRGRDYDPHFDYWGQGTTVTVSS
VL: EIVLTQSPATLSVTPGDRVSLSCRASQSISDFLHWYQQRSHESPRLLIKYASQSISGIPSRFGGSGSGSDFTLNINTVEPEDVGMYYCQSAHSFPYTFGGGTKLEIK
notes: murine hybridoma mAb; also called 8ES
B2: G10F6 (antibody, V domains shown)
VH: EVKLVESGPGILQPSQTLSLTCSFSGFSLSTSGMGVSWVRQPSGKGLEWLAHIYWDDDKRYNPSLKGRLTISKDTPRNQVFLEITSVDTTDTATYYCARVPGNWDEDAMDYWGQGTTVTVSS
VL: DIQMTQSPLSLPVSLGDQASISCRSSQNIVHTNGNTYLEWYLQKVGQSPKLLIYKVSNRFSGVPDRFSGSGSGTDFTLKISRVEAEDLGVYYCFQGSHVPYTFGGGTKLEIK
notes: murine hybridoma mAb
B3: 5B8 (antibody, V domains shown)
VH: EVQLKESGGGLVQPGGSLRISCATSGLTFTHYHMSWVRQPPGKAPEWLAIIRNKAYGYTTDYSASVRGRFTISRDDSQSILYLQMNTLRAEDSATYYCVREGGYGYDGTFAYWGQGTTVTVSS
VL: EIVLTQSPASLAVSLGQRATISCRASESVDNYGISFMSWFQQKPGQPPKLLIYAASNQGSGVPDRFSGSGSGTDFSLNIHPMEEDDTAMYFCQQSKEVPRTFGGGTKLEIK
notes: murine hybridoma mAb
B4: 8C9 (antibody, V domains shown)
VH: B3 VH with A90P
VL: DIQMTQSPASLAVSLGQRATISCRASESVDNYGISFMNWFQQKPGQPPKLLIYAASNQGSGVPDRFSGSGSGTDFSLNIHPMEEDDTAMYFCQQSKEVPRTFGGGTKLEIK
notes: murine hybridoma mAb
B5: 10D2 (antibody, V domains shown)
VH: EVQLQQSGPELKKPGETVKISCKASGYTFTDYSMHWVKQAPGKGLKWMGWINTETGQPTYADDFKGRFAFSLETSASSAYLQINNLKNEDTATYFCTRTFYYDYVGDYWGQGTTVTVSS
VL: DIVMTQSHKFMSTSVGDRVSITCKASQDVSTAVAWYRQKPGQSPKLLIYWASTRHTGVPDRLTGSGSGTDFALTINSVQAEDLALYYCQQHSSTPYTFGGGTKLEIK
notes: murine hybridoma mAb
B6: 3C11 (antibody, V domains shown)
VH: EVQLQQSGTVLARPGASVKMSCKASGYNFISYWLHWIKQRPGQGLEWIGGIYPGNTDTTYNQKFKGKAKVTAVTSATTAYMELSSLTNEDSAVYYCIRYDYDRGMDYWGQGTTVTVSS
VL: DIQMTQSPSSFSVSLGDRVTITCRASEDIYYRLAWYQQKPGNAPRLLISGATALETGVPSRFSGSGSGKDYTLSITSLQTEDVATYYCQHYWNIPWTFGGGTKLEIK
notes: murine hybridoma mAb
B7: 3B12H5 (antibody, V domains shown)
VH: EVQLQQSGTVLARPGASVKMSCKASGYSFTIYWVHWVKQRPGQGLEWIGAVYPGNDDTSYNQNFKGKAKLTAVTSATTAYMELSSLTIDDSAVYYCTRHTYDEVFDYWGQGTTVTVSS
VL: B6 VL with Q3V, F11L, R24K, A51G, A53N, T56A, V58I, T85I, I94T
notes: murine hybridoma mAb; also called 3B12HS
B8: 6A7 (antibody, V domains shown)
VH: EVQLKESGAELVRPGASVKVSCKASGYSFTSYWMNWVKQRPGQGLEWIGMIHPSDSETKLNQKFRDRASLTVDKSSSTAYMQLSSPTSEDSAVYYCTINYESFYYAMDYWGQGTTVTVSS
VL: DIVMTQSPASLAVSLGQRATISCRASKSVSTSGYSYMHWYQQKPGQPPKLLLYLASNLESGVPARFSGSGSGADFTLNIHPVEEEDAATYYCLHSRELPYTFGGGTKLEIK
notes: murine hybridoma mAb
B9: 12E6 (antibody, V domains shown)
VH: EVQLKESGPGILQPSQTLSLTCSFSGFSLSTSGMGVGWIRQPSGKGLEWLAHIWWDDVKLYNPALKSRLTISKETSNNQVFLKIASVDAADTATYYCARIDHGYGSNYWDFDVWGAGTTVTVSS
VL: DIVMTQAAPSVPVTPGGSVSISCRSTKSLLHSDGKTYLYWFLQRPGQSPQLLIYRMSNLASGVPDRFSGSGSGTAFTLRISRVEAEDVGVYYCMQHLEYPFTFGSGTKLEIK
notes: murine hybridoma mAb

This assay addresses T1, human CDCP1 on tumor cells (human, UniProt Q9H5V8 30-836).
T1 construct: whole, on cells; cell line is named under assay or readout
T1 sequence (looked up): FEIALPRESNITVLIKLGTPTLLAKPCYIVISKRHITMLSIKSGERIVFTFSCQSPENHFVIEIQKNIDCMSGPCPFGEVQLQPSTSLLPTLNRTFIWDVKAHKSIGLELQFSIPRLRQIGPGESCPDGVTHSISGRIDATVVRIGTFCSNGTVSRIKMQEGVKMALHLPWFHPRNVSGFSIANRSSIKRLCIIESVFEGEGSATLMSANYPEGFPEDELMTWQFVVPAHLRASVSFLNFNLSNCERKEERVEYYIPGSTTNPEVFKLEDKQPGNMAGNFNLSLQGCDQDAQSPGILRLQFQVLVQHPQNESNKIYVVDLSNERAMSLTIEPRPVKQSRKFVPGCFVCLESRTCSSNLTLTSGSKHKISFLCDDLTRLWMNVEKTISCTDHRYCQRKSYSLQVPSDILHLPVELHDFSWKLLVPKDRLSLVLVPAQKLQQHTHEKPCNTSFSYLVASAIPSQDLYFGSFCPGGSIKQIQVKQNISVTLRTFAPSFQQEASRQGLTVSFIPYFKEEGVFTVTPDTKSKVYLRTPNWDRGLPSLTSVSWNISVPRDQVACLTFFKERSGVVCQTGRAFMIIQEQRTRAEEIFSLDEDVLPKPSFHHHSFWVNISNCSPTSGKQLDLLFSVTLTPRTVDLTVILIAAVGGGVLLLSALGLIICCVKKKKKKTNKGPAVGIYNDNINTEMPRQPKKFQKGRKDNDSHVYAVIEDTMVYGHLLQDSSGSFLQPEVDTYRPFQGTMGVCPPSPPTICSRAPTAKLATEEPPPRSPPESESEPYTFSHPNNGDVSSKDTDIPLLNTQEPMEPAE
Nature of the assay: flow cytometry, MDA-MB-231 cells. The method, then: Flow cytometry was used to detect the binding capacity of antibody to tumor cells. […] 2.0×10⁴ tumor cells were added per well, respectively, and 50 μL (PBS+2% FBS) were added, and after blocking at room temperature with an Fe blocker (Human TruStain FcX™, Biolegend, 422302) for 10 mins, an anti-CDCP1 murine monoclonal antibody at a final concentration of 200 nM was added. The obtained mixture was subjected to a 3-fold serial dilution across 8 concentration points, and incubated at 4° C. for 30 mins, and then incubated with a secondary antibody (PE anti-human IgG Fc Antibody, Biolegend, 410708), detection was performed using a flow cytometer.
On the technique in general: Flow cytometry measures light scatter and fluorescence of single cells or particles in a stream.
Turning to B1, a half-maximal response (EC50) required 0.67 nM.

B2: the EC50 (as a rule, the midpoint of the concentration-response curve) is 0.19 nM.

Molecule B3 yielded an EC50 of 0.93 nM.

In turn, B4 yielded an EC50 of 0.47 nM.

As for B5, the EC50 amounted to 0.49 nM.

The molecule B6 had an EC50 of 0.27 nM.

Take B7: the EC50 amounted to 0.47 nM.

In the case of B8, the midpoint of the response, the EC50, lay at 1.72 nM.

Molecule B9 came in with an EC50 of 85.5 nM.
